In publication PMC5036196:

molecular target: yeast histone H2A-H2B dimer (Saccharomyces cerevisiae) (UniProt P04911); assay: ITC; ITC200 at 20 °C; 0.5 mM ARB2 or mutant in the injector, 0.2 mM H2A/B or 0.25 mM H3/4 in the sample cell; 25 mM Tris-HCl pH 7.5, 200 mM NaCl; single-site fitting model

Row | Binder | Kd [µM] | dH [kcal/mol] | stoichiometry N
1 | ARB2-M1 (residues Gln463, His467 and Asp471 mutated to Ala) (domain or fragment) LQKAIRAQQQAYLSAEFNFVTLPLVSMDLPDNTVLCTPNISESNTIIIVVHDTSDIWAKRNVISGTIDLSSSVIIDNSLDFIKWGLDRKYGIIDVNIPLTLFEPDNYSGMITSQEVLIYLWDNYIKYFPSVAKIAFIGIGDSYSGIVHLLGHRDTRAVTKTVINFLGDKQLKPLVPLVDETLSEWYFKNSLIFSNNSHQCWKENESRKPRKKFGRVLRCDTDGLNNIIEERFEEATDFILDS | 20.4 | -6.86 | 0.77
2 | ARB2-M3 (residues Val481, Ser482, Met483 and Asp484 mutated to Ala) (domain or fragment) LQKAIRQQQQHYLSDEFNFVTLPLAAAALPDNTVLCTPNISESNTIIIVVHDTSDIWAKRNVISGTIDLSSSVIIDNSLDFIKWGLDRKYGIIDVNIPLTLFEPDNYSGMITSQEVLIYLWDNYIKYFPSVAKIAFIGIGDSYSGIVHLLGHRDTRAVTKTVINFLGDKQLKPLVPLVDETLSEWYFKNSLIFSNNSHQCWKENESRKPRKKFGRVLRCDTDGLNNIIEERFEEATDFILDS | 27.7 | -11.6 | 0.74
3 | ARB2-M4 (residues His604, His608 and Arg609 mutated to Ala) (domain or fragment) LQKAIRQQQQHYLSDEFNFVTLPLVSMDLPDNTVLCTPNISESNTIIIVVHDTSDIWAKRNVISGTIDLSSSVIIDNSLDFIKWGLDRKYGIIDVNIPLTLFEPDNYSGMITSQEVLIYLWDNYIKYFPSVAKIAFIGIGDSYSGIVALLGAADTRAVTKTVINFLGDKQLKPLVPLVDETLSEWYFKNSLIFSNNSHQCWKENESRKPRKKFGRVLRCDTDGLNNIIEERFEEATDFILDS | 17.4 | -11.5 | 0.8

Continued, values first:

Row | Kd [µM] | dH [kcal/mol] | stoichiometry N | Binder
4 | 5.46 | -12.9 | 0.78 | ARB2 domain of Hda1 (Hda1^457–698) (domain or fragment) LQKAIRQQQQHYLSDEFNFVTLPLVSMDLPDNTVLCTPNISESNTIIIVVHDTSDIWAKRNVISGTIDLSSSVIIDNSLDFIKWGLDRKYGIIDVNIPLTLFEPDNYSGMITSQEVLIYLWDNYIKYFPSVAKIAFIGIGDSYSGIVHLLGHRDTRAVTKTVINFLGDKQLKPLVPLVDETLSEWYFKNSLIFSNNSHQCWKENESRKPRKKFGRVLRCDTDGLNNIIEERFEEATDFILDS
5 | 16.9 | -8.9 | 0.64 | ARB2-M2 (residues Tyr468 and Glu472 mutated to Ala) (domain or fragment) LQKAIRQQQQHALSDAFNFVTLPLVSMDLPDNTVLCTPNISESNTIIIVVHDTSDIWAKRNVISGTIDLSSSVIIDNSLDFIKWGLDRKYGIIDVNIPLTLFEPDNYSGMITSQEVLIYLWDNYIKYFPSVAKIAFIGIGDSYSGIVHLLGHRDTRAVTKTVINFLGDKQLKPLVPLVDETLSEWYFKNSLIFSNNSHQCWKENESRKPRKKFGRVLRCDTDGLNNIIEERFEEATDFILDS
